The Human Domainome abundance scans (Beltran et al. 2025)
± gives the uncertainty stated by the source.

B1: Pre-mRNA-processing factor 40 homolog B, residues 274 to 332; numbered along this chain, Q6NWY9 (parent)
chain: SNREKAKQAFKELLRDKAVPSNASWEQAMKMVVTDPRYSALPKLSEKKQAFNAYKAQRE

Variants of: B1
Assay: abundance fitness (aPCA) (normalised: wild type 0, dead -1); higher = more abundant; growth selection in yeast, the domain comes from the species named
Settings: Homo sapiens

Abundance fitness: each site, then its substitutions
L14: P -0.261 ± 0.1, K -0.408 ± 0.11, A -0.452 ± 0.069, I -1.05 ± 0.27, W -0.963 ± 0.11, M -0.639 ± 0.1, E -0.339 ± 0.096, N -0.376 ± 0.11, F -0.683 ± 0.12, T -0.547 ± 0.098, R -0.71 ± 0.067, S -0.384 ± 0.079, G -0.403 ± 0.054, C -0.483 ± 0.11, H -0.573 ± 0.2, Q -0.339 ± 0.12, Y -0.925 ± 0.18, D -0.504 ± 0.11, V -0.385 ± 0.068
S1: G 0.07 ± 0.087, A -0.015 ± 0.15, T -0.032 ± 0.15, C 0.042 ± 0.16, M -0.364 ± 0.38, P -0.478 ± 0.25, W -0.417 ± 0.092, Y 0.089 ± 0.23, R -0.084 ± 0.13, E -0.206 ± 0.24, F 0.15 ± 0.27, L 0.045 ± 0.18, D -0.357 ± 0.48, N -0.042 ± 0.18, I -0.075 ± 0.28, V 0.13 ± 0.14, K 0.135 ± 0.18
E12: S -0.283 ± 0.083, R -0.62 ± 0.073, Q -0.249 ± 0.1, F -0.718 ± 0.18, P -0.988 ± 0.14, M -0.705 ± 0.14, N -0.128 ± 0.14, V -0.705 ± 0.077, Y -0.817 ± 0.27, K -0.469 ± 0.11, W -1.15 ± 0.17, L -0.632 ± 0.091, T -0.301 ± 0.13, H -0.297 ± 0.17, C -0.602 ± 0.13, A -0.231 ± 0.075, D -0.152 ± 0.12, G -0.491 ± 0.061
K5: N -0.081 ± 0.17, S -0.055 ± 0.071, D -0.012 ± 0.12, Q -0.07 ± 0.14, V -0.063 ± 0.066, T -0.042 ± 0.095, Y -0.179 ± 0.14, I -0.171 ± 0.19, H -0.203 ± 0.14, L -0.177 ± 0.072, R -0.193 ± 0.057, G -0.187 ± 0.066, M -0.024 ± 0.096, E -0.049 ± 0.09, W -0.553 ± 0.081, C -0.134 ± 0.088, P -0.409 ± 0.11
Q8: S -0.362 ± 0.08, E 0.003 ± 0.085, H -0.341 ± 0.21, T -0.065 ± 0.14, G -0.301 ± 0.057, C -0.386 ± 0.14, P -0.42 ± 0.11, N -0.585 ± 0.15, F -0.412 ± 0.21, Y -0.49 ± 0.24, W -0.581 ± 0.11, R -0.241 ± 0.058, L -0.108 ± 0.089, M -0.416 ± 0.15, I -0.069 ± 0.18, A -0.145 ± 0.069
E4: V -1.08 ± 0.093, K -0.368 ± 0.11, G -0.374 ± 0.054, H -0.082 ± 0.23, P -0.566 ± 0.13, F -0.294 ± 0.14, D -0.01 ± 0.099, N -0.074 ± 0.14, L -0.23 ± 0.081, W -0.642 ± 0.11, R -0.45 ± 0.064, A -1.5 ± 0.17, M -0.41 ± 0.1, S -0.156 ± 0.071, C -0.668 ± 0.17, T -0.433 ± 0.1, Y -0.457 ± 0.21, I -0.025 ± 0.18, Q -0.233 ± 0.084
K17: H -0.239 ± 0.2, L -0.605 ± 0.089, T -0.429 ± 0.091, R -0.107 ± 0.061, D -0.72 ± 0.13, F -0.146 ± 0.099, M -0.038 ± 0.11, P -0.573 ± 0.13, A -0.106 ± 0.072, E -0.437 ± 0.097, Q -0.213 ± 0.13, V -0.525 ± 0.068, I -0.651 ± 0.15, Y -0.189 ± 0.18, C -0.38 ± 0.12, G -0.599 ± 0.075, S -0.365 ± 0.071, N -0.07 ± 0.15
A18: H 0.074 ± 0.14, L -0.127 ± 0.069, W -0.473 ± 0.085, C 0.007 ± 0.11, E -0.012 ± 0.069, Q 0.101 ± 0.092, Y -0.656 ± 0.19, P -0.606 ± 0.096, V -0.367 ± 0.065, T -0.282 ± 0.097, N -0.067 ± 0.15, S -0.089 ± 0.073, R -0.035 ± 0.058, M -0.096 ± 0.11, D 0.045 ± 0.14, I -0.536 ± 0.13, F -0.539 ± 0.18, K -0.043 ± 0.086
V19: C -0.583 ± 0.11, D -0.295 ± 0.13, A -0.612 ± 0.085, N -0.598 ± 0.19, T -0.231 ± 0.1, I -0.462 ± 0.13, Q -0.383 ± 0.2, F -0.932 ± 0.14, Y -0.992 ± 0.15, G -0.479 ± 0.056, K -0.807 ± 0.13, L -0.606 ± 0.084, H -0.938 ± 0.23, M -0.32 ± 0.095, W -0.589 ± 0.083, E -0.375 ± 0.096, P -0.477 ± 0.11, S -0.533 ± 0.078, R -0.633 ± 0.065
P20: C -0.59 ± 0.095, A -0.451 ± 0.066, D -0.395 ± 0.14, E -0.364 ± 0.064
L13: Y -0.559 ± 0.16, N -0.482 ± 0.11, I -1.12 ± 0.28, T -0.48 ± 0.093, D -0.262 ± 0.1, R -0.491 ± 0.066, M 0.122 ± 0.097, C -0.244 ± 0.12, A -0.327 ± 0.063, E -0.377 ± 0.074, H -0.411 ± 0.13, W -1.02 ± 0.12, V -0.511 ± 0.066, Q -0.286 ± 0.14, G -0.331 ± 0.056, K -0.388 ± 0.11, F -0.668 ± 0.13
K11: F 0.061 ± 0.12, R -0.03 ± 0.067, Y -0.155 ± 0.24, S -0.001 ± 0.1, H -0.17 ± 0.32, T 0.217 ± 0.11, C 0.061 ± 0.11, L 0.159 ± 0.1, W 0.082 ± 0.1, A 0.145 ± 0.084, G -0.16 ± 0.07, N -0.137 ± 0.16, I 0.233 ± 0.12, E 0.004 ± 0.15, D -0.386 ± 0.17, P -0.322 ± 0.13, Q 0.343 ± 0.13
D16: S -0.486 ± 0.069, H -1.03 ± 0.18, W -0.579 ± 0.1, N -1.23 ± 0.19, C -0.933 ± 0.1, F -1.05 ± 0.11, Y -0.888 ± 0.13, L -0.584 ± 0.075, V -0.716 ± 0.073, T -0.351 ± 0.085, R -0.7 ± 0.064, Q -0.443 ± 0.12, A -0.461 ± 0.079, M -1.03 ± 0.17, P -0.875 ± 0.12, K -0.699 ± 0.12
A9: T 0.117 ± 0.11, D 0.09 ± 0.12, P -0.536 ± 0.11, L -0.092 ± 0.088, R -0.364 ± 0.06, G -0.292 ± 0.064, E -0.038 ± 0.088, Y -0.417 ± 0.21, H -0.458 ± 0.13, S -0.106 ± 0.1, K -0.196 ± 0.089, Q -0.041 ± 0.13, N -0.279 ± 0.14, W -0.72 ± 0.096, C -0.094 ± 0.1, V 0.003 ± 0.077, F -0.563 ± 0.35, I 0.081 ± 0.13, M -0.119 ± 0.12
R15: Y -0.091 ± 0.18, Q -0.062 ± 0.14, K -0.129 ± 0.16, H 0.064 ± 0.32, E 0.046 ± 0.14, M 0.219 ± 0.2, V -0.001 ± 0.087, I -0.052 ± 0.18, N 0.015 ± 0.15, D -0.238 ± 0.16, F 0.019 ± 0.13, W -0.106 ± 0.1, P -0.593 ± 0.12, A 0.001 ± 0.089, S -0.214 ± 0.1, C -0.171 ± 0.11, L -0.097 ± 0.077, G -0.211 ± 0.084
R3: E -0.047 ± 0.11, C 0.043 ± 0.12, T -0.062 ± 0.1, H -0.281 ± 0.22, P 0.034 ± 0.082, M 0.07 ± 0.1, L 0.044 ± 0.089, G -0.084 ± 0.072, W -0.251 ± 0.11, F -0.27 ± 0.17, K 0.308 ± 0.12, I 0.06 ± 0.16, N 0.221 ± 0.23, A -0.409 ± 0.1, D 0.036 ± 0.19, S 0.076 ± 0.089
F10: T -0.048 ± 0.1, G -0.277 ± 0.059, W -0.869 ± 0.11, H -0.132 ± 0.14, K -0.318 ± 0.12, Y -0.282 ± 0.16, R -0.332 ± 0.064, P -0.177 ± 0.097, L -0.424 ± 0.11, D -0.22 ± 0.13, V -0.511 ± 0.075, I -0.25 ± 0.22, S -0.254 ± 0.072, E -0.067 ± 0.087, M -0.4 ± 0.11, C -0.611 ± 0.12
A6: S -0.194 ± 0.084, Y -0.56 ± 0.13, M -0.539 ± 0.13, Q 0.009 ± 0.12, E 0.172 ± 0.11, G -0.05 ± 0.055, L -0.566 ± 0.077, D -0.002 ± 0.09, R -0.381 ± 0.059, V -0.331 ± 0.072, I -0.153 ± 0.16, H -0.201 ± 0.16, T -0.394 ± 0.13, K -0.243 ± 0.14, W -0.948 ± 0.13
N2: E -0.089 ± 0.1, C -0.547 ± 0.15, T 0.027 ± 0.11, W -0.276 ± 0.12, M -0.393 ± 0.12, D 0.033 ± 0.18, L -0.581 ± 0.12, R -0.324 ± 0.073, Q 0.037 ± 0.095, I -0.46 ± 0.23, H -0.83 ± 0.2, P -0.497 ± 0.17, Y -1.01 ± 0.34, S -0.208 ± 0.09, K -0.139 ± 0.11, G -0.207 ± 0.069, A -0.406 ± 0.12, V -0.849 ± 0.16
K7: P -0.587 ± 0.087, S -0.005 ± 0.066, Q 0.062 ± 0.11, R -0.174 ± 0.055, Y -0.016 ± 0.15, I -0.055 ± 0.17, G -0.319 ± 0.054, L 0.065 ± 0.072, A 0.027 ± 0.064, M 0.144 ± 0.094, C -0.276 ± 0.12, H 0.065 ± 0.12, T 0.042 ± 0.083, N -0.074 ± 0.1, V 0.124 ± 0.062, E 0.135 ± 0.08, F 0.104 ± 0.13
